Measured values published in publication doi:10.1101/2020.12.15.408237.

Molecular target: Staphylococcus aureus FrmB (Staphylococcus aureus Newman)
Test: SEC

stoichiometry N: 2
Substance: Staphylococcus aureus FrmB (enzyme)
